The source of these data is PMC2907653.

Substrate in data set [1]: CO[C@@H]1[C@H](O)[C@@H](COP(=O)(O)OP(=O)(O)OP(=O)(O)OC[C@H]2O[C@@H](n3c[n+](C)c4c(=O)[nH]c(N)nc43)[C@H](O)[C@@H]2O)O[C@H]1n1cnc2c(=O)[nH]c(N)nc21
Kind of data set: purified protein. Particulars: cleaved between β and γ phosphates; pH 7.2; 20.0 °C.

Substrate in data set [2]: C[n+]1cn([C@@H]2O[C@H](COP(=O)(O)OP(=O)(O)OP(=O)(O)OC[C@H]3O[C@@H](n4c[n+](C)c5c(=O)[nH]c(N)nc54)[C@H](O)[C@@H]3O)[C@@H](O)[C@H]2O)c2nc(N)[nH]c(=O)c21
Kind of data set: purified protein. As to conditions: cleaved between β and γ phosphates; pH 7.2; 20.0 °C.

Substrate in data set [3]: C[n+]1cn([C@@H]2O[C@H](COP(=O)(O)OP(=O)(O)OP(=O)(O)OC[C@H]3O[C@@H](n4cnc5c(N)ncnc54)[C@H](O)[C@@H]3O)[C@@H](O)[C@H]2O)c2nc(N)[nH]c(=O)c21
Kind of data set: purified protein. As to conditions: cleaved between β and γ phosphates; pH 7.2; 20.0 °C.

Substrate in data set [4]: CC[n+]1cn([C@@H]2O[C@H](COP(=O)(O)OP(=O)(O)OP(=O)(O)OC[C@H]3O[C@@H](n4cnc5c(=O)[nH]c(N)nc54)[C@H](O)[C@@H]3O)[C@@H](O)[C@H]2O)c2nc(N)[nH]c(=O)c21
Kind of data set: purified protein. As to conditions: cleaved between β and γ phosphates; cap-binding pocket; pH 7.2; 20.0 °C.

Substrate in data set [5]: Nc1nc2c(ncn2[C@@H]2O[C@H](COP(=O)(O)OP(=O)(O)OP(=O)(O)OC[C@H]3O[C@@H](n4c[n+](Cc5ccccc5)c5c(=O)[nH]c(N)nc54)[C@H](O)[C@@H]3O)[C@@H](O)[C@H]2O)c(=O)[nH]1
Kind of data set: purified protein. Particulars: cleaved between β and γ phosphates; cap-binding pocket; pH 7.2; 20.0 °C.

Substrate in data set [6]: CNc1ncnc2c1ncn2[C@@H]1O[C@H](COP(=O)(O)OP(=O)(O)OP(=O)(O)OC[C@H]2O[C@@H](n3c[n+](C)c4c(=O)[nH]c(N)nc43)[C@H](O)[C@@H]2O)[C@@H](O)[C@H]1O
Kind of data set: purified protein. Particulars: cleaved between β and γ phosphates; pH 7.2; 20.0 °C.

Substrate in data set [7]: CN(C)c1nc2c(c(=O)[nH]1)[n+](C)cn2[C@@H]1O[C@H](COP(=O)(O)OP(=O)(O)OP(=O)(O)OC[C@H]2O[C@@H](n3cnc4c(N)ncnc43)[C@H](O)[C@@H]2O)[C@@H](O)[C@H]1O
Kind of data set: purified protein. As to conditions: cleaved between β and γ phosphates; pH 7.2; 20.0 °C.

Substrate in data set [8]: C[n+]1cn([C@@H]2O[C@H](COP(=O)(O)OP(=O)(O)OP(=O)(O)OC[C@H]3O[C@@H](n4cnc5c(=O)[nH]c(N)nc54)C[C@@H]3O)[C@@H](O)[C@H]2O)c2nc(N)[nH]c(=O)c21
Kind of data set: purified protein. Particulars: cleaved between β and γ phosphates; pH 7.2; 20.0 °C.

Substrate in data set [9]: C[n+]1cn([C@@H]2O[C@H](COP(=O)(O)OP(=O)(O)OP(=O)(O)OC[C@H]3O[C@@H](n4cnc5c(=O)[nH]c(N)nc54)[C@H](O)[C@@H]3O)[C@@H](O)[C@H]2O)c2nc(N)[nH]c(=O)c21
Kind of data set: purified protein. As to conditions: cleaved between β and γ phosphates; cap-binding pocket; pH 7.2; 20.0 °C.

Substrate in data set [10]: CN(C)c1nc2c(c(=O)[nH]1)[n+](C)cn2[C@@H]1O[C@H](COP(=O)(O)OP(=O)(O)OP(=O)(O)OC[C@H]2O[C@@H](n3cnc4c(=O)[nH]c(N)nc43)[C@H](O)[C@@H]2O)[C@@H](O)[C@H]1O
Kind of data set: fluorimetric and HPLC hydrolysis kinetics. Format: biochemical, Caenorhabditis elegans. As to conditions: cleaved between β and γ phosphates; cap-binding pocket; pH 7.2; 20.0 °C.

B1: C. elegans scavenger decapping enzyme (DcpS) (Caenorhabditis elegans) (protein)
chain: MKRIADEELVREERAEESTQKWLQDAKFQEILGADSSHKSLFVLLSHPDGSQGILLANKSPFSEEKSDIEKLLATAQLQEISRNDIFGSYNIEIDPKLNLLKSQLIYPINDRLIAKYRQEEKFVIRETPELYETVTRPYIEKYQLNLNWVYNCLEKRSEVDKIVFEDPDNENGFVLLQDIKWDGKTLENLYVLAICHRHGLKSVRDLTGDDLEMLYNMRDKSLEAINQKYGLKTDQIKCYFHYQPSFYHLHVHFINLKYDAPASTTMSAILLDDVINNLELNPEHYKKSTLTFTRKNGDKLMEMFREALKN
Regarding B1, the Km in the data set “purified protein [1]” was found to be 1.23 µM; in the data set “purified protein [2]” it was 1.12 µM; in the data set “purified protein [3]”, 0.6 µM; in “purified protein [4]”, 0.61 µM; in “purified protein [5]” it was 1.83 µM; in the data set “purified protein [6]”, 1.03 µM. The Km amounted to 2.36 µM in “purified protein [7]”, 1.36 µM in “purified protein [8]”, 1.17 µM in the data set “purified protein [9]” and 3.85 µM in data set [10]. In addition, the Vmax in the data set “purified protein [1]” is 1.66 µmol/min/mg; in the data set “purified protein [2]”, 0.91 µmol/min/mg; in the data set “purified protein [3]”, 1.09 µmol/min/mg; in “purified protein [4]”, 3.12 µmol/min/mg; in “purified protein [5]” it was 3.06 µmol/min/mg; in “purified protein [6]”, 1.33 µmol/min/mg. In addition, the maximal velocity (Vmax) in the data set “purified protein [7]” is 2.06 µmol/min/mg; in the data set “purified protein [8]”, 2 µmol/min/mg; in the data set “purified protein [9]”, 1.53 µmol/min/mg; in [10], 4.65 µmol/min/mg.
